Laboratory results taken from article PMC7159904.

Molecular target: Dispatched-yellow fluorescent protein (YFP) (D. melanogaster) (UniProt Q9VNJ5)
Test: MST

UniProt Q9VNJ5, sequence (Q9VNJ5 whole entry): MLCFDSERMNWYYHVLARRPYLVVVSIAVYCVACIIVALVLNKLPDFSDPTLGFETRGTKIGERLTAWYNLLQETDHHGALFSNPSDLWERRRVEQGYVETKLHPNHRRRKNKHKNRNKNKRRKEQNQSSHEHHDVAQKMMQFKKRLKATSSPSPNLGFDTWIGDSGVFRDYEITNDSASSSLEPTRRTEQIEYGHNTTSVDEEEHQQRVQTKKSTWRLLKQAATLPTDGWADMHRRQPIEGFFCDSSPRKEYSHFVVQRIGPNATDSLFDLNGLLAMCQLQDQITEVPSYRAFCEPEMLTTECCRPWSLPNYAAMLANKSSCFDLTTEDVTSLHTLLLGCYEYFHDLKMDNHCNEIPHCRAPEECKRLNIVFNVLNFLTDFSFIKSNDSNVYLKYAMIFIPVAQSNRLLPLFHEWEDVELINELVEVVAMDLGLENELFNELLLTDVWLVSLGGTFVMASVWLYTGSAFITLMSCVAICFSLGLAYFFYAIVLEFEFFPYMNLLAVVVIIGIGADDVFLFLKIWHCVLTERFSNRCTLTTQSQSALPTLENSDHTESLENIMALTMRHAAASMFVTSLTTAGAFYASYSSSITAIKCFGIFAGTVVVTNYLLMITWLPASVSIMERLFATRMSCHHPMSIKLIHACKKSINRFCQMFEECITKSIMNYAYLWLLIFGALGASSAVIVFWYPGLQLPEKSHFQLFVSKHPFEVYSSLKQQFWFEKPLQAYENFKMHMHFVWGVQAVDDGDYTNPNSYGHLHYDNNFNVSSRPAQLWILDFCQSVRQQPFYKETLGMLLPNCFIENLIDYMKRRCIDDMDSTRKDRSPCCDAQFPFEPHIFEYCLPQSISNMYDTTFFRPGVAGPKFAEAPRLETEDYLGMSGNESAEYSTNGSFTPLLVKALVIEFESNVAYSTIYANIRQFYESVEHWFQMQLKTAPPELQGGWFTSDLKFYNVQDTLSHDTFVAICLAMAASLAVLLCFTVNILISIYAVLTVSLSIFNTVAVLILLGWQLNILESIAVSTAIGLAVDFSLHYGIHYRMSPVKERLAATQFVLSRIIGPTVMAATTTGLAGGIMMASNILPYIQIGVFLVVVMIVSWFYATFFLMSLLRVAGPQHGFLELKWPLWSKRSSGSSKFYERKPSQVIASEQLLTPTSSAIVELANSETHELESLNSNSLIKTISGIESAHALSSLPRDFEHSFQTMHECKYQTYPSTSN

Kd: 6.2 µM
Substance: modified D. melanogaster hedgehog N-terminal fragment HhN_(C85II) (from UniProt Q02936 85-257) (ligand)
